Patent US20110008841A1

Molecular target: chimera L
Assay: Bio-Plex titration on bead-captured chimera; cell bold and boxed = binding lost

B1: AMH26/AML26 (antibody, IgG2, V domains shown)
VH: QVQLVESGGGLVKPGGSLRLSCAASGFTFSDYYMSWIRQAPGKGLEWVSYISSSGSTIYYADSVKGRFTISRDNAKNSLYLQMNSLRAEDTAVYYCARDRTYYFGSGSYEGMDVWGQGTTVTVSS
VL: EILMTQSPATLSVSPGERATLSCRASQSVYSNLAWYQQKPGQAPRLLISGASTRATGIPARFSGSGSGTEFTLTISSLQSEDFAVYYCQQYYNWPWTFGQGTKVEIK
EC50 cell marked as binding lost although the number is below wild type: 6 pM
